According to US20220298218A1 (ANTAG THERAPEUTICS, published 2022):
*1 amine or outer side, *2 acyl side, *3 side chain or, on linkers, in order; H or OH if unused. Where no end group is shown, it is not given here. Side-chain parts run from the residue outwards. The star is where a group is joined. C18 diacid = O=C(O)CCCCCCCCCCCCCCCCC(=O)*; C16 diacid = O=C(O)CCCCCCCCCCCCCCC(=O)*; γGlu = O=C(O)[C@H](CCC(=O)[*:2])N[*:1]; AEEA = NCCOCCOCC(=O)O

T1: human GIP receptor (human, UniProt P48546 22-466)
T1 sequence (looked up): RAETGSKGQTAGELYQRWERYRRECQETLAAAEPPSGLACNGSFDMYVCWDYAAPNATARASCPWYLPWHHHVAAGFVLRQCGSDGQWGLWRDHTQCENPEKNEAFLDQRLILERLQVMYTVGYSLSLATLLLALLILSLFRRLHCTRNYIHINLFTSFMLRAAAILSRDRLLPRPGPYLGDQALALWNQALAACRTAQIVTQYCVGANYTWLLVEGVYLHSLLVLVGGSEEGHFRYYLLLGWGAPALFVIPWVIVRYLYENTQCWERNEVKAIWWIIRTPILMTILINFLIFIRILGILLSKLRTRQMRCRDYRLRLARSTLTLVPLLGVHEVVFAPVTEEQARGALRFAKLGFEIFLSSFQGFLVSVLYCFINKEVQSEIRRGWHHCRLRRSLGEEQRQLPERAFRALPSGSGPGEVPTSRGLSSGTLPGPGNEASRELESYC


Target: T1, human GIP receptor
Experiment: cell-based or functional assay

Binder	cAMP antagonism [nM]	cAMP antagonism % inhib [%]	cAMP antagonism log [log M]
TFISDYK([AEEA-AEEA-AEEA-γGlu-C16 diacid])IAMDRIHQQDFVNWLLAQRGPSSGAPPPS-OH (N-terminus assumed; SMILES CC[C@H](C)[C@H](NC(=O)[C@H](CCCCNC(=O)COCCOCCNC(=O)COCCOCCNC(=O)COCCOCCNC(=O)CC[C@H](NC(=O)CCCCCCCCCCCCCCC(=O)O)C(=O)O)NC(=O)[C@H](Cc1ccc(O)cc1)NC(=O)[C@H](CC(=O)O)NC(=O)[C@H](CO)NC(=O)[C@@H](NC(=O)[C@H](Cc1ccccc1)NC(=O)[C@@H](N)[C@@H](C)O)[C@@H](C)CC)C(=O)N[C@@H](C)C(=O)N[C@@H](CCSC)C(=O)N[C@@H](CC(=O)O)C(=O)N[C@@H](CCCNC(=N)N)C(=O)N[C@H](C(=O)N[C@@H](Cc1c[nH]cn1)C(=O)N[C@@H](CCC(N)=O)C(=O)N[C@@H](CCC(N)=O)C(=O)N[C@@H](CC(=O)O)C(=O)N[C@@H](Cc1ccccc1)C(=O)N[C@H](C(=O)N[C@@H](CC(N)=O)C(=O)N[C@@H](Cc1c[nH]c2ccccc12)C(=O)N[C@@H](CC(C)C)C(=O)N[C@@H](CC(C)C)C(=O)N[C@@H](C)C(=O)N[C@@H](CCC(N)=O)C(=O)N[C@@H](CCCNC(=N)N)C(=O)NCC(=O)N1CCC[C@H]1C(=O)N[C@@H](CO)C(=O)N[C@@H](CO)C(=O)NCC(=O)N[C@@H](C)C(=O)N1CCC[C@H]1C(=O)N1CCC[C@H]1C(=O)N1CCC[C@H]1C(=O)N[C@@H](CO)C(=O)O)C(C)C)[C@@H](C)CC) [AT444]	153	100	-6.8
TFISDYKIAMDKIHQQDFVNWLLAQKG (HELM PEPTIDE1{T.F.I.S.D.Y.K.I.A.M.D.K.I.H.Q.Q.D.F.V.N.W.L.L.A.Q.K.G}|PEPTIDE2{[O=C(O)CCCCCCCCCCCCCCC(=O)[*:2]].[gGlu]}$PEPTIDE1,PEPTIDE2,7:R3-2:R2$$$V2.0; N-terminus assumed; SMILES CC[C@H](C)[C@H](NC(=O)[C@H](CCCCNC(=O)CC[C@H](NC(=O)CCCCCCCCCCCCCCC(=O)O)C(=O)O)NC(=O)[C@H](Cc1ccc(O)cc1)NC(=O)[C@H](CC(=O)O)NC(=O)[C@H](CO)NC(=O)[C@@H](NC(=O)[C@H](Cc1ccccc1)NC(=O)[C@@H](N)[C@@H](C)O)[C@@H](C)CC)C(=O)N[C@@H](C)C(=O)N[C@@H](CCSC)C(=O)N[C@@H](CC(=O)O)C(=O)N[C@@H](CCCCN)C(=O)N[C@H](C(=O)N[C@@H](Cc1c[nH]cn1)C(=O)N[C@@H](CCC(N)=O)C(=O)N[C@@H](CCC(N)=O)C(=O)N[C@@H](CC(=O)O)C(=O)N[C@@H](Cc1ccccc1)C(=O)N[C@H](C(=O)N[C@@H](CC(N)=O)C(=O)N[C@@H](Cc1c[nH]c2ccccc12)C(=O)N[C@@H](CC(C)C)C(=O)N[C@@H](CC(C)C)C(=O)N[C@@H](C)C(=O)N[C@@H](CCC(N)=O)C(=O)N[C@@H](CCCCN)C(=O)NCC(=O)O)C(C)C)[C@@H](C)CC) [AT455]	31	95	-7.5
TFISDYK([AEEA-AEEA-γGlu-C18 diacid])IAMDRIHQQDFVNWLLAQRGPSSGAPPPS-OH (N-terminus assumed; SMILES CC[C@H](C)[C@H](NC(=O)[C@H](CCCCNC(=O)COCCOCCNC(=O)COCCOCCNC(=O)CC[C@H](NC(=O)CCCCCCCCCCCCCCCCC(=O)O)C(=O)O)NC(=O)[C@H](Cc1ccc(O)cc1)NC(=O)[C@H](CC(=O)O)NC(=O)[C@H](CO)NC(=O)[C@@H](NC(=O)[C@H](Cc1ccccc1)NC(=O)[C@@H](N)[C@@H](C)O)[C@@H](C)CC)C(=O)N[C@@H](C)C(=O)N[C@@H](CCSC)C(=O)N[C@@H](CC(=O)O)C(=O)N[C@@H](CCCNC(=N)N)C(=O)N[C@H](C(=O)N[C@@H](Cc1c[nH]cn1)C(=O)N[C@@H](CCC(N)=O)C(=O)N[C@@H](CCC(N)=O)C(=O)N[C@@H](CC(=O)O)C(=O)N[C@@H](Cc1ccccc1)C(=O)N[C@H](C(=O)N[C@@H](CC(N)=O)C(=O)N[C@@H](Cc1c[nH]c2ccccc12)C(=O)N[C@@H](CC(C)C)C(=O)N[C@@H](CC(C)C)C(=O)N[C@@H](C)C(=O)N[C@@H](CCC(N)=O)C(=O)N[C@@H](CCCNC(=N)N)C(=O)NCC(=O)N1CCC[C@H]1C(=O)N[C@@H](CO)C(=O)N[C@@H](CO)C(=O)NCC(=O)N[C@@H](C)C(=O)N1CCC[C@H]1C(=O)N1CCC[C@H]1C(=O)N1CCC[C@H]1C(=O)N[C@@H](CO)C(=O)O)C(C)C)[C@@H](C)CC) [AT445]	47	85	-7.3
TFISDYKIAMDKIHQQDFVNWLLAQKGKKN (HELM PEPTIDE1{T.F.I.S.D.Y.K.I.A.M.D.K.I.H.Q.Q.D.F.V.N.W.L.L.A.Q.K.G.K.K.N}|PEPTIDE2{[O=C(O)CCCCCCCCCCCCCCC(=O)[*:2]].[gGlu]}$PEPTIDE1,PEPTIDE2,7:R3-2:R2$$$V2.0; N-terminus assumed; SMILES CC[C@H](C)[C@H](NC(=O)[C@H](CCCCNC(=O)CC[C@H](NC(=O)CCCCCCCCCCCCCCC(=O)O)C(=O)O)NC(=O)[C@H](Cc1ccc(O)cc1)NC(=O)[C@H](CC(=O)O)NC(=O)[C@H](CO)NC(=O)[C@@H](NC(=O)[C@H](Cc1ccccc1)NC(=O)[C@@H](N)[C@@H](C)O)[C@@H](C)CC)C(=O)N[C@@H](C)C(=O)N[C@@H](CCSC)C(=O)N[C@@H](CC(=O)O)C(=O)N[C@@H](CCCCN)C(=O)N[C@H](C(=O)N[C@@H](Cc1c[nH]cn1)C(=O)N[C@@H](CCC(N)=O)C(=O)N[C@@H](CCC(N)=O)C(=O)N[C@@H](CC(=O)O)C(=O)N[C@@H](Cc1ccccc1)C(=O)N[C@H](C(=O)N[C@@H](CC(N)=O)C(=O)N[C@@H](Cc1c[nH]c2ccccc12)C(=O)N[C@@H](CC(C)C)C(=O)N[C@@H](CC(C)C)C(=O)N[C@@H](C)C(=O)N[C@@H](CCC(N)=O)C(=O)N[C@@H](CCCCN)C(=O)NCC(=O)N[C@@H](CCCCN)C(=O)N[C@@H](CCCCN)C(=O)N[C@@H](CC(N)=O)C(=O)O)C(C)C)[C@@H](C)CC) [AT457]	14	100	-7.9
TFISDYK([AEEA-AEEA-AEEA-γGlu-C18 diacid])IAMDRIHQQDFVNWLLAQRGPSSGAPPPS-OH (N-terminus assumed; SMILES CC[C@H](C)[C@H](NC(=O)[C@H](CCCCNC(=O)COCCOCCNC(=O)COCCOCCNC(=O)COCCOCCNC(=O)CC[C@H](NC(=O)CCCCCCCCCCCCCCCCC(=O)O)C(=O)O)NC(=O)[C@H](Cc1ccc(O)cc1)NC(=O)[C@H](CC(=O)O)NC(=O)[C@H](CO)NC(=O)[C@@H](NC(=O)[C@H](Cc1ccccc1)NC(=O)[C@@H](N)[C@@H](C)O)[C@@H](C)CC)C(=O)N[C@@H](C)C(=O)N[C@@H](CCSC)C(=O)N[C@@H](CC(=O)O)C(=O)N[C@@H](CCCNC(=N)N)C(=O)N[C@H](C(=O)N[C@@H](Cc1c[nH]cn1)C(=O)N[C@@H](CCC(N)=O)C(=O)N[C@@H](CCC(N)=O)C(=O)N[C@@H](CC(=O)O)C(=O)N[C@@H](Cc1ccccc1)C(=O)N[C@H](C(=O)N[C@@H](CC(N)=O)C(=O)N[C@@H](Cc1c[nH]c2ccccc12)C(=O)N[C@@H](CC(C)C)C(=O)N[C@@H](CC(C)C)C(=O)N[C@@H](C)C(=O)N[C@@H](CCC(N)=O)C(=O)N[C@@H](CCCNC(=N)N)C(=O)NCC(=O)N1CCC[C@H]1C(=O)N[C@@H](CO)C(=O)N[C@@H](CO)C(=O)NCC(=O)N[C@@H](C)C(=O)N1CCC[C@H]1C(=O)N1CCC[C@H]1C(=O)N1CCC[C@H]1C(=O)N[C@@H](CO)C(=O)O)C(C)C)[C@@H](C)CC) [AT446]	152	100	-6.8
TFISDYKIAMDKIHQQDFVNWLLAQKGK (HELM PEPTIDE1{T.F.I.S.D.Y.K.I.A.M.D.K.I.H.Q.Q.D.F.V.N.W.L.L.A.Q.K.G.K}|PEPTIDE2{[O=C(O)CCCCCCCCCCCCCCC(=O)[*:2]].[gGlu]}$PEPTIDE1,PEPTIDE2,7:R3-2:R2$$$V2.0; N-terminus assumed; SMILES CC[C@H](C)[C@H](NC(=O)[C@H](CCCCNC(=O)CC[C@H](NC(=O)CCCCCCCCCCCCCCC(=O)O)C(=O)O)NC(=O)[C@H](Cc1ccc(O)cc1)NC(=O)[C@H](CC(=O)O)NC(=O)[C@H](CO)NC(=O)[C@@H](NC(=O)[C@H](Cc1ccccc1)NC(=O)[C@@H](N)[C@@H](C)O)[C@@H](C)CC)C(=O)N[C@@H](C)C(=O)N[C@@H](CCSC)C(=O)N[C@@H](CC(=O)O)C(=O)N[C@@H](CCCCN)C(=O)N[C@H](C(=O)N[C@@H](Cc1c[nH]cn1)C(=O)N[C@@H](CCC(N)=O)C(=O)N[C@@H](CCC(N)=O)C(=O)N[C@@H](CC(=O)O)C(=O)N[C@@H](Cc1ccccc1)C(=O)N[C@H](C(=O)N[C@@H](CC(N)=O)C(=O)N[C@@H](Cc1c[nH]c2ccccc12)C(=O)N[C@@H](CC(C)C)C(=O)N[C@@H](CC(C)C)C(=O)N[C@@H](C)C(=O)N[C@@H](CCC(N)=O)C(=O)N[C@@H](CCCCN)C(=O)NCC(=O)N[C@@H](CCCCN)C(=O)O)C(C)C)[C@@H](C)CC) [AT456]	60	85	-7.2
